Measured values as given in US7399869B2, “Fibroblast activation protein inhibitor compounds and methods” (Genentech, Inc., priority 2005, dated 2008).

What was measured:
[1] = substrate: NCC(=O)N1CCCC1C(=O)Nc1ccc2c(C(F)(F)F)c(CC(N)=O)c(=O)oc2c1; experiment: Hydrolysis of C-terminal coumarin dipeptide substrates by DPP-4 (kinetic constants); assay type: biochemical; conditions: other: DPP-4, substrates with unblocked N-termini, 23° C., pH 7.4
Experimental: (§1) The relative cleavage rates by FAP and several dipeptidases of N-blocked (8) and unblocked (7) Gly-Pro dipeptide substrates were measured.
(§2) The cleavage (hydrolysis) rates of various C-terminal coumarin dipeptide substrates 7-16 by FAP and DPP-4 were measured (Tables 4 and 5). The amino-terminus of the substrates was unblocked and the amino acids were varied in Table 4. The amino-terminus of the substrates was blocked and the amino acids were varied in Table 5. To extend the results obtained with the dipeptide substrate library, kinetic parameters were determined for cleavage of the unblocked dipeptide substrates by FAP (Table 4). The catalytic efficiency (kcat/Km) for substrate cleavage was greatest with Ile-Pro-AFC, followed by Ala-Pro-, Gly-Pro- and Phe-Pro-AFC, consistent with the dipeptide substrate library results (FIG. 5). […] Kinetic constants for cleavage of Ala-Pro-AFC and Gly-Pro-AFC by DPP-4 were determined (Table 4). The catalytic efficiency for Ala-Pro-AFC hydrolysis was greater than that for Gly-Pro-AFC, and consistent with the dipeptide library.
(§3) Protease Assays—Protease activity was monitored continuously using a SpectraMax M2 microplate reader (Molecular Devices Corp., Sunnyvale Calif.) in the kinetic mode. Assays were conducted at 23° C. in 50 mM Tris (pH 7.4), 100 mM NaCl, 1 mM EDTA. The excitation/emission wavelengths for the different fluorogenic substrates were 360/460 nm (AMC), 400/505 nm (AFC), 340/425 nm (MNA), 340/510 nm (EDANS), and 337/425 nm (Abs). Standard curves of the appropriate fluorescent product versus concentration were used to convert relative fluorescence units to nmol of product produced. Substrates in the X-Pro-AMC library were used in rate assays at 5 μM final concentration. […] The kinetic parameters were calculated from Michaelis-Menten plots (V0 versus [S]) with nonlinear regression analysis using GraphPad software. kcat values were calculated under the assumption that each protease was 100% active.
(§4) When saturating amounts of substrate could not be achieved, catalytic efficiencies (kcat/Km) were determined under pseudo-first order conditions ([S]<<the estimated Km) and fit to the following equation: Ln[St/S0]=−kobst, where St is the concentration of substrate remaining at time t, S0 is the initial substrate concentration and kobs is the apparent first order substrate cleavage constant equal to (kcat/Km) times ET, the total enzyme concentration (Copeland, R. (2000) Enzymes, A Practical Introduction to Structure, Mechanism, and Data Analysis, 2nd Ed., John Wiley and Sons, Inc, New York). The linear relationship of Ln[St/S0] versus time allows calculation of kcat/Km by dividing the slope of the plot by ET.

[2] = substrate: CC(=O)NCC(=O)N1CCCC1C(=O)Nc1ccc2c(C(F)(F)F)c(CC(N)=O)c(=O)oc2c1; experiment: as above; assay type: biochemical; conditions: other: DPP-4, substrates with blocked N-termini, 23° C., pH 7.4, NC = no cleavage up to 1 mM substrate
Experimental: as §1, §2, §3, §4

B1: DPP-4 (Homo sapiens) (protein)
chain: SRKTYTLTDYLKNTYRLKLYSLRWISDHEYLYKQENNILVFNAEYGNSSVFLENSTFDEFGHSINDYSISPDGQFILLEYNYVKQWRHSYTASYDIYDLNKRQLITEERIPNNTQWVTWSPVGHKLAYVWNNDIYVKIEPNLPSYRITWTGKEDIIYNGITDWVYEEEVFSAYSALWWSPNGTFLAYAQFNDTEVPLIEYSFYSDESLQYPKTVRVPYPKAGAVNPTVKFFVVNTDSLSSVTNATSIQITAPASMLIGDHYLCDVTWATQERISLQWLRRIQNYSVMDICDYDESSGRWNCLVARQHIEMSTTGWVGRFRPSEPHFTLDGNSFYKIISNEEGYRHICYFQIDKKDCTFITKGTWEVIGIEALTSDYLYYISNEYKGMPGGRNLYKIQLSDYTKVTCLSCELNPERCQYYSVSFSKEAKYYQLRCSGPGLPLYTLHSSVNDKGLRVLEDNSALDKMLQNVQMPSKKLDFIILNETKFWYQMILPPHFDKSKKYPLLLDVYAGPCSQKADTVFRLNWATYLASTENIIVASFDGRGSGYQGDKIMHAINRRLGTFEVEDQIEAARQFSKMGFVDNKRIAIWGWSYGGYVTSMVLGSGSGVFKCGIAVAPVSRWEYYDSVYTERYMGLPTPEDNLDHYRNSTVMSRAENFKQVEYLLIHGTADDNVHFQQSAQISKALVDVGVDFQAMWYTDEDHGIASSTAHQHIYTHMSHFIKQCFSLP
notes: DPP-4 (amino acids 39-766); FLAG (N); made in house; host or cells: 293 cells (secreted, purified from serum-free conditioned media)
- Km [1]: 76 ± 10 µM
- kcat [1]: 121 ± 5 s⁻¹
- kcat/Km [1]: 1.6e+06 M⁻¹ s⁻¹
- kcat [2]: < 0.07 s⁻¹
- kcat/Km [2]: 36 ± 3 M⁻¹ s⁻¹
